Results: the Immune Epitope Database (IEDB)

What was measured:
Experiment in all cases: IEDB peptide-MHC binding, purified MHC/competitive/radioactivity; ≥ and ≤ were set here for values at or beyond the usual limits of such assays
HLA-A*02:03 = target: HLA-A*02:03
HLA-A*68:02 = target: HLA-A*68:02
HLA-A*02:01 = target: HLA-A*02:01
HLA-A*02:02 = target: HLA-A*02:02
HLA-A*02:06 = target: HLA-A*02:06
[1] = source organism: Vaccinia virus WR
[2] = source organism: Influenza A virus
[3] = source organism: Mammarenavirus brazilense

Sequence	IC50 (HLA-A*02:03; [1]) [nM]	IC50 (HLA-A*68:02; [1]) [nM]	IC50 (HLA-A*02:01; [1]) [nM]	IC50 (HLA-A*02:02; [1]) [nM]	IC50 (HLA-A*02:06; [1]) [nM]	further results
ILATLNTLI	0.23	2310	15	0.41	40	
HAFLCLFLL						IC50 (HLA-A*02:03; source organism: SARS-CoV1): 46 nM; IC50 (HLA-A*68:02; source organism: SARS-CoV1): 10 nM; IC50 (HLA-A*02:01; source organism: SARS-CoV1): 2.1 nM; IC50 (HLA-A*02:02; source organism: SARS-CoV1): 21 nM; IC50 (HLA-A*02:06; source organism: SARS-CoV1): 1.2 nM
GLYIPGTSV	17	904	75	111	1740	
MQALQLLLEV						IC50 (HLA-A*02:03; [2]): 13 nM; IC50 (HLA-A*68:02; [2]): 615 nM; IC50 (HLA-A*02:01; [2]): 67 nM; IC50 (HLA-A*02:02; [2]): 147 nM; IC50 (HLA-A*02:06; [2]): 48 nM
FLFWFLKSGA	0.58	38	1.9	1.1	23	
FLLPSLATV						IC50 (HLA-A*02:03; source organism: SARS-CoV1): 0.2 nM; IC50 (HLA-A*68:02; source organism: SARS-CoV1): 16 nM; IC50 (HLA-A*02:01; source organism: SARS-CoV1): 0.34 nM; IC50 (HLA-A*02:02; source organism: SARS-CoV1): 0.13 nM; IC50 (HLA-A*02:06; source organism: SARS-CoV1): 0.41 nM
LLPDALLFTL						IC50 (HLA-A*02:03; [3]): 733 nM; IC50 (HLA-A*68:02; [3]): 232 nM; IC50 (HLA-A*02:01; [3]): 77 nM; IC50 (HLA-A*02:02; [3]): 4.7 nM; IC50 (HLA-A*02:06; [3]): 79 nM
QMAGVEVRYI	0.14	147	6.4	0.21	45	
TVLTSVDIET	915	2990	1260	1720	961	
WISFAISCFL						IC50 (HLA-A*02:03; [2]): 355 nM; IC50 (HLA-A*68:02; [2]): 364 nM; IC50 (HLA-A*02:01; [2]): 3510 nM; IC50 (HLA-A*02:02; [2]): 230 nM; IC50 (HLA-A*02:06; [2]): 819 nM
RIITILQDIV	209	290	526	595	95	
QIFNIISYII	206	332	355	288	743	
NLFDIPLLT	36	2890	10	135	1540	
YTISSESLV	38	3.3	1060	522	54	
AISYCRAFI	149	98	169	17	146	
KAKQLCYCPA	188	2460	1500	308	339	
FVDTMSIYI	370	465	9.6	21	16	
